Results on two substances are retold here after article PMC5780489.

Test [1] has as its target PABPC1ΔLt2 (residues 1-420, 471-636) (human) (UniProt P11940).
Test [2] addresses poly(A)-binding protein C1 (PABPC1), full length human (human) (UniProt P11940).

Sequence of poly(A)-binding protein C1 (PABPC1), full length human (P11940 whole entry): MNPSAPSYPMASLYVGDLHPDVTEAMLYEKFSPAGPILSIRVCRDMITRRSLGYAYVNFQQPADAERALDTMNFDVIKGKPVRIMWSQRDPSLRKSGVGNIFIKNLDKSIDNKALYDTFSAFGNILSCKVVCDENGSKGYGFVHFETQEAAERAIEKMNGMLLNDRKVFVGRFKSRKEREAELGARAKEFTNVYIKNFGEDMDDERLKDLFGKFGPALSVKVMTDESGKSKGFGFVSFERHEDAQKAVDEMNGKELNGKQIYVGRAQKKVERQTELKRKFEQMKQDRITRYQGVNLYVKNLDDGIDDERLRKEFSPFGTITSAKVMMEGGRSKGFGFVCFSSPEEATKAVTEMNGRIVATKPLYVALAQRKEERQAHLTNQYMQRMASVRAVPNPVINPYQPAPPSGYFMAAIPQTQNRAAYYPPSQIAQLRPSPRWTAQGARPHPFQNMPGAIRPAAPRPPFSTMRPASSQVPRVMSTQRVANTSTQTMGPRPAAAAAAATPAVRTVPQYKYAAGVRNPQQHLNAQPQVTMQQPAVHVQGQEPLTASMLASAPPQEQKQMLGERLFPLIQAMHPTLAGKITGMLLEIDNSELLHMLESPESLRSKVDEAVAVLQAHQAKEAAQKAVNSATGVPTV

With “PABPC1ΔLt2 (residues 1-420, 471-636) (from UniProt P11940 1-636) (natural protein)”, the translation of capped luciferase mRNA with poly(A) in PABPC1-depleted rabbit reticulocyte lysate after adding 10 nM purified protein; fold enhancement over depleted lysate in test [1] was 1.7 fold. With “poly(A)-binding protein C1 (PABPC1), full length human (from UniProt P11940 1-636) (natural protein)”, the translation of capped luciferase mRNA with poly(A) in PABPC1-depleted rabbit reticulocyte lysate after adding 10 nM purified protein; fold enhancement over depleted lysate in test [2] was 2.5 fold.
